This is an account of results in patent publication US20260356933 (published 2026).

This assay has as its target IL6 (human, UniProt P05231). As to the kind of experiment: ELISA, apparent. (In general: An ELISA detects its analyte on a solid surface through an enzyme-linked reagent.)

Sequence of IL6 (P05231 30-212): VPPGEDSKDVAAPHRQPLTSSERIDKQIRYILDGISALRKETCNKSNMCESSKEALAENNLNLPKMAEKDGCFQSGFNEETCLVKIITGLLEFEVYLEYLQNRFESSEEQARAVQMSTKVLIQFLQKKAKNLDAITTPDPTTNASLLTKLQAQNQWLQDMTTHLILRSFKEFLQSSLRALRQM

B1: SIL-2E7 (antibody, V domains shown)
VH: EVQLVESGGGLVQAGGSLRLSCAASGRTFSKNTMGWFRQAPGKEREFVAAISWSVGSTYYGDSVNGRFTISRDDAKNTVYLQMNSLKPEDTAIYYCAADSSHYMLHPELREYDYWGQGTQVTVSS
B1: the Kd worked out at 2 nM.

B2: SIL-2D1 (antibody, V domains shown)
VH: EVQLVESGGGSVQPGGSLRLSCAASGFTLADESSGWFRQAPGKEREGVSCISITDGITYYADSVKGRFTISRDNAKNTLYLQMNSLKPEDTAVYYCATGNPYCSGHAGTEYDDWGQGTQVTVSS
Regarding B2, the Kd worked out at 80 nM.

B3: SIL-3E7 (antibody, V domains shown)
VH: EVQLVESGGGLVQAGGSLRLSCAASARTFSNYALGWFRQVPGKEREFVAGITWSGDNTYYADSVKDRFTISRDNAKNTVWLQMNSLRPEDTAVYICAAEAVLEDKVAVSTMRYEYDYWGQGTQVTVSS
For B3, the Kd is more than 1000 nM.

B4: SIL-2D8 (antibody, V domains shown)
VH: EVQLVESGGGLVQAGGSLRLSCTASGHNADTYAMGWFRQAPGKEREFVTGISWTGVGTYIADSVKGRFTISRDNAKNTVYLQMNSLKPEDTAVYRCAAGSDYSDSHYDKSYEYDYWGQGTQVTVSS
As for B4, the Kd was determined as 5 nM.

B5: SIL-2F5 (antibody, V domains shown)
VH: EVQLVESGGGLVQAGGSLRLSCAASGRAADTYAMGWFRQSPGSRREFVTGISWTGSGTYYADSVKGRFTISRDTAKNTVYLQMNSLKPEDTAVYYCAAGSDYSDSHYDKSYEYDYWGQGTQVTVSS
Consider B5, for which the Kd came out at 1 nM.

B6: SIL-3B7 (antibody, V domains shown)
VH: EVQLVESGGGLVQAGGSLRLSCAASARTFSNYAMGWFRQAPGKEREFVAGISWSGGYTSYADSVKGRFTISRDNAKNTVALEMNSLKPEDTAVYYCAAEGVIDELPIKTMRYEYDYWGQGTQVTVSS
Regarding B6, the Kd is more than 1000 nM.

B7: SIL-2E4 (antibody, V domains shown)
VH: EVQLVESGGGLVQPGGSLRLSCAASGSIFDDHAIGWFRQAPGKEREGVSSIMTSDDSTHYADSVKGRFTISRDKAKNTVYLQMNNLKPEDTAVYYCAATDVFGLQYSSFLKSYEYDYWGQGTQVTVSS
With B7, the Kd is more than 1000 nM.

B8: SIL-3B6 (antibody, V domains shown)
VH: EVQLVESGGGLVQPGGSLRLSCAASGSIFDDHAIGWFRQAPGKEREGVSSIMTSDDSTHYADSVKGRFTVSRDKAKNTVYLQMNDLKPEDTAVYYCAATDVFGLQYSSFLKSYEYDYWGQGTQVTVSS
As for B8, the Kd worked out at 20 nM.
